What was measured:
HeLa Kyoto [1] = assay: solubility in G1/S (NP-40 vs SDS abundance) (log2 ratio); higher = more soluble; details: cell cycle stage: G1/S
HeLa Kyoto [2] = assay: melting temperature (median over replicates), in situ; higher = more thermally stable
HeLa Kyoto [3] = assay: solubility change mitosis vs G1/S (difference of NP-40 vs SDS log2 ratios) (log2 ratio difference); higher = more soluble in mitosis
HeLa Kyoto [4] = assay: thermal stability score vs G1/S (z-score of summed log2 fold changes over temperatures); higher = more thermally stable than in G1/S
[5] = cell cycle stage: early G1 (4.5 h after nocodazole release)
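For melting temperature (median over replicates), in situ in this document: HeLa Kyoto cells synchronized by double thymidine or nocodazole block, proteins quantified by TMT10plex mass spectrometry, three independent biological replicates.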
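For solubility change mitosis vs G1/S (difference of NP-40 vs SDS log2 ratios) in this document: synchronized HeLa Kyoto cells (double thymidine block for G1/S, nocodazole release for mitosis), protein amounts in NP-40 versus SDS lysates quantified by mass spectrometry, three biological replicates.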
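For solubility in G1/S (NP-40 vs SDS abundance) in this document: HeLa Kyoto cells arrested at G1/S by double thymidine block, proteins quantified by TMT10plex mass spectrometry in mild NP-40 versus SDS extracts, three biological replicates.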
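For thermal stability score vs G1/S (z-score of summed log2 fold changes over temperatures) in this document: synchronized HeLa Kyoto cells, proteins quantified by TMT10plex mass spectrometry, three biological replicates, mitosis taken 0.5 h after nocodazole release, G1/S directly after double thymidine block.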

METGTAPLVAPPRRHGAPAAPSPPPRGSRAGPVVVVAPGPPVTTATSAPVTLVAPGEARPAWVPGSAETSAPAPAPAPAPAPAVTGSTVVVLTLEASPEAPKPQLPSGPESPEPAAVAGVETSRALAAGADSPKTEEARPSPAPGPGTPTGTPTRTPSRTAPGALTAKPPLAPKPGTTVASGVTARSASGQVTGGHGAAAATSASAGQAPEDPSGPGTGPSGTCEAPVAVVTVTPAPEPAENSQDLGSTSSLGPGISGPRGQAPDTLSYLDSVSLMSGTLESLADDVSSMGSDSEINGLALRKTDKYGFLGGSQYSGSLESSIPVDVARQRELKWLDMFSNWDKWLSRRFQKVKLRCRKGIPSSLRAKAWQYLSNSKELLEQNPGKFEELERAPGDPKWLDVIEKDLHRQFPFHEMFAARGGHGQQDLYRILKAYTIYRPDEGYCQAQAPVAAVLLMHMPAEQAFWCLVQICDKYLPGYYSAGLEAIQLDGEIFFALLRRASPLAHRHLRRQRIDPVLYMTEWFMCIFARTLPWASVLRVWDMFFCEGVKIIFRVALVLLRHTLGSVEKLRSCQGMYETMEQLRNLPQQCMQEDFLVHEVTNLPVTEALIERENAAQLKKWRETRGELQYRPSRRLHGSRAIHEERRRQQPPLGPSSSLLSLPGLKSRGSRAAGGAPSPPPPVRRASAGPAPGPVVTAEGLHPSLPSPTGNSTPLGSSKETRKQEKERQKQEKERQKQEKEREKERQKQEKEREKQEKEREKQEKERQKQEKKAQGRKLSLRRKADGPPGPHDGGDRPSAEARQDAYF [TBC1D10B]
solubility in G1/S (log2) (HeLa Kyoto [1]): 0.0909 | melting temperature (HeLa Kyoto [2]; cell cycle stage: G1/S): 51.2 °C | melting temperature (HeLa Kyoto [2]; cell cycle stage: mitosis): 52.2 °C | solubility change mitosis (log2) (HeLa Kyoto [3]): -0.137 | thermal stability score (HeLa Kyoto [4]; [5]): 0.22 | thermal stability score (HeLa Kyoto [4]; cell cycle stage: mitosis): 0.904

METILEQQRRYHEEKERLMDVMAKEMLTKKSTLRDQINSDHRTRAMQDRYMEVSGNLRDLYDDKDGLRKEELNAISGPNEFAEFYNRLKQIKEFHRKHPNEICVPMSVEFEELLKARENPSEEAQNLVEFTDEEGYGRYLDLHDCYLKYINLKASEKLDYITYLSIFDQLFDIPKERKNAEYKRYLEMLLEYLQDYTDRVKPLQDQNELFGKIQAEFEKKWENGTFPGWPKETSSALTHAGAHLDLSAFSSWEELASLGLDRLKSALLALGLKCGGTLEERAQRLFSTKGKSLESLDTSLFAKNPKSKGTKRDTERNKDIAFLEAQIYEYVEILGEQRHLTHENVQRKQARTGEEREEEEEEQISESESEDEENEIIYNPKNLPLGWDGKPIPYWLYKLHGLNINYNCEICGNYTYRGPKAFQRHFAEWRHAHGMRCLGIPNTAHFANVTQIEDAVSLWAKLKLQKASERWQPDTEEEYEDSSGNVVNKKTYEDLKRQGLL [SF3A3]
solubility in G1/S (log2) (HeLa Kyoto [1]): 0.132 | melting temperature (HeLa Kyoto [2]; cell cycle stage: G1/S): 49.8 °C | melting temperature (HeLa Kyoto [2]; cell cycle stage: mitosis): 48.1 °C | solubility change mitosis (log2) (HeLa Kyoto [3]): 0.129 | thermal stability score (HeLa Kyoto [4]; [5]): 0.0461 | thermal stability score (HeLa Kyoto [4]; cell cycle stage: mitosis): 0.769

METQLSNGPTCNNTANGPTTINNNCSSPVDSGNTEDSKTNLIVNYLPQNMTQEELKSLFGSIGEIESCKLVRDKITGQSLGYGFVNYIDPKDAEKAINTLNGLRLQTKTIKVSYARPSSASIRDANLYVSGLPKTMTQKELEQLFSQYGRIITSRILVDQVTGISRGVGFIRFDKRIEAEEAIKGLNGQKPPGATEPITVKFANNPSQKTNQAILSQLYQSPNRRYPGPLAQQAQRFRLDNLLNMAYGVKRFSPMTIDGMTSLAGINIPGHPGTGWCIFVYNLAPDADESILWQMFGPFGAVTNVKVIRDFNTNKCKGFGFVTMTNYDEAAMAIASLNGYRLGDRVLQVSFKTNKTHKA [ELAVL2]
solubility in G1/S (log2) (HeLa Kyoto [1]): 0.208 | melting temperature (HeLa Kyoto [2]; cell cycle stage: G1/S): 52.6 °C | melting temperature (HeLa Kyoto [2]; cell cycle stage: mitosis): 52.2 °C | solubility change mitosis (log2) (HeLa Kyoto [3]): -0.0286 | thermal stability score (HeLa Kyoto [4]; [5]): -0.26 | thermal stability score (HeLa Kyoto [4]; cell cycle stage: mitosis): -1.01

METVISSDSSPAVENEHPQETPESNNSVYTSFMKSHRCYDLIPTSSKLVVFDTSLQVKKAFFALVTNGVRAAPLWDSKKQSFVGMLTITDFINILHRYYKSALVQIYELEEHKIETWREVYLQDSFKPLVCISPNASLFDAVSSLIRNKIHRLPVIDPESGNTLYILTHKRILKFLKLFITEFPKPEFMSKSLEELQIGTYANIAMVRTTTPVYVALGIFVQHRVSALPVVDEKGRVVDIYSKFDVINLAAEKTYNNLDVSVTKALQHRSHYFEGVLKCYLHETLETIINRLVEAEVHRLVVVDENDVVKGIVSLSDILQALVLTGGEKKP [PRKAG1]
solubility in G1/S (log2) (HeLa Kyoto [1]): 0.164 | melting temperature (HeLa Kyoto [2]; cell cycle stage: G1/S): 50.7 °C | melting temperature (HeLa Kyoto [2]; cell cycle stage: mitosis): 51.2 °C | solubility change mitosis (log2) (HeLa Kyoto [3]): -0.127 | thermal stability score (HeLa Kyoto [4]; [5]): 0.779 | thermal stability score (HeLa Kyoto [4]; cell cycle stage: mitosis): 1.52

MEVPPRLSHVPPPLFPSAPATLASRSLSHWRPRPPRQLAPLLPSLAPSSARQGARRAQRHVTAQQPSRLAGGAAIKGGRRRRPDLFRRHFKSSSIQRSAAAAAATRTARQHPPADSSVTMEDMNEYSNIEEFAEGSKINASKNQQDDGKMFIGGLSWDTSKKDLTEYLSRFGEVVDCTIKTDPVTGRSRGFGFVLFKDAASVDKVLELKEHKLDGKLIDPKRAKALKGKEPPKKVFVGGLSPDTSEEQIKEYFGAFGEIENIELPMDTKTNERRGFCFITYTDEEPVKKLLESRYHQIGSGKCEIKVAQPKEVYRQQQQQQKGGRGAAAGGRGGTRGRGRGQGQNWNQGFNNYYDQGYGNYNSAYGGDQNYSGYGGYDYTGYNYGNYGYGQGYADYSGQQSTYGKASRGGGNHQNNYQPY [HNRNPDL]
solubility in G1/S (log2) (HeLa Kyoto [1]): -0.122 | melting temperature (HeLa Kyoto [2]; cell cycle stage: G1/S): 54.4 °C | melting temperature (HeLa Kyoto [2]; cell cycle stage: mitosis): 53.6 °C | solubility change mitosis (log2) (HeLa Kyoto [3]): 0.352 | thermal stability score (HeLa Kyoto [4]; [5]): 0.0293 | thermal stability score (HeLa Kyoto [4]; cell cycle stage: mitosis): -2.51
